{"source": "patent US11311622B2", "about": "“Development of masked therapeutic antibodies to limit off-target effects” (CITY OF HOPE, priority 2010, dated 2022)", "target": "T1, MMP-9 (Homo sapiens, UniProt P14780)", "T1 construct": "purchased Calbiochem", "T1 sequence (P14780 107-707 limits assumed, species assumed)": "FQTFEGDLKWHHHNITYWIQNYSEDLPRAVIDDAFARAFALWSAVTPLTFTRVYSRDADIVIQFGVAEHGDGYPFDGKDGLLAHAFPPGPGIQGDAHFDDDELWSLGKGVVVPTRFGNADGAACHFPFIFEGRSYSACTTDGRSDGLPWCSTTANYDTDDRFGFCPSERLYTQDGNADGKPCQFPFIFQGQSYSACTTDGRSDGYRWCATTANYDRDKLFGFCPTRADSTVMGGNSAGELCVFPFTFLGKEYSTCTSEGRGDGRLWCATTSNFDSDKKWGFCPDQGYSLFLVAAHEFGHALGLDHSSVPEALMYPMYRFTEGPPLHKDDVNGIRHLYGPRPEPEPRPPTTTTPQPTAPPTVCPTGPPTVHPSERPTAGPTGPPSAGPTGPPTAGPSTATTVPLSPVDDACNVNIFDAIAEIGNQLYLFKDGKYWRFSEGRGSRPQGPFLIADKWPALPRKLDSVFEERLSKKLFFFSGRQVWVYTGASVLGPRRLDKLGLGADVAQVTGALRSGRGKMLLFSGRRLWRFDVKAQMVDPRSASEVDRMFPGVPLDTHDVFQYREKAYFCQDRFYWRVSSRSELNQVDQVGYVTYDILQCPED", "assay": "MMP-9 digestion of masked and cross-masked scFvs (SDS-PAGE)", "type": "biochemical", "details": "into the mask and scFv proteins"}
{"molecule": "Masked 425: sEGFRdIII (S460P/G461N) mask, MMP-9 cleavable linker, scFv 425, FLAG and H6 tags; SEQ ID NO:6 (protein) MRPSGTAGAALLALLAALCPASRARKVCNGIGIGEFKDSLSINATNIKHFKNCTSISGDLHILPVAFRGDSFTHTPPLDPQELDILKTVKEITGFLLIAAWPENRTDLHAFENLEIIRGRTKMEGQFSLAVVSLNITSLGLRSLKEISDGDVIISGNKNLCYANTINWKKLFGTSGQKTKIISNRGENSCKATGQVCHALCSPEGCWGPEPKDCVSCRNVSRGRECCSRGGGSGGGSGGGSVPLSLYSGSTSGSGKSSEGSGSGAQGELVMTQSPAIMSASPGEKVTMTCSASSSVTYMYWYQQKPGSSPRLLIYDTSNLASGVPVRFSGSGSGTSYSLTISRMEAEDAATYYCQQWSSHIFTFGSGTKLEIKGGGGSGGGGSGGGGSQVQLVESGAELVKPGASVKLSCKASGYTFTSHWMHWVKQRAGQGLEWIGEFNPSNGRTNYNEKFKSKATLTVDKSSSTAYMQLSSLTSEDSAVYYCASRDYDYDGRYFDYWGQGTTLTVSDYKDDDDKTGHHHHHH", "values": [{"measurement": "cleavage by recombinant active MMP-9", "value": "completely cleaved"}]}
